Results: patent publication US20040235064A1 (YALE UNIVERSITY, published 2004)

Target: T1, CZGFP (Aequorea victoria (GFP part); CZ helix …)
T1 construct: Expressed in E. coli BL21(DE3) and purified for the in vitro assays; expressed from a pET11a plasmid in the colony assays; also called EK-CGFP; C-terminal GFP fusion peptide
Assay: competition: EK peptide added to refolding NZGFP/CZGFP complex (4 µM), fluorescence at 505 nm; competitor of NZGFP
Procedure: For inhibition experiments all fluorescence measurements were made in triplicate on a Hitachi F-4500 Fluorescence Spectrophotometer with excitation at 475 nm and emission at 505 nm. A 1.2 mM stock solution of equimolar amounts of NZGFP/CZGFP was allowed to reassemble and fluoresce until there was no change in fluorescence (36 hours). The reassembled complex was denatured in 4 M GdmHCl for 4 hours following which different concentrations of EK peptide, NGFP, or CGFP were added and the NZGFP/CZGFP concentration adjusted to 800 μM. The samples were diluted 200 fold into 2 mM DTT, 10 mM Tris.HCl buffer at pH 7.2 to a 20 mM final concentration of Gdm.HCl and allowed to refold and fluoresce. In order to eliminate artifacts from time dependent inhibition, fluorescence measurements were made after 4 hours and after 16 hours and found to be constant.
To verify that the GRIP assay could be utilized for detecting inhibitors of protein-protein interactions (Zutshi, R., et al., 1998, Curr. Opin. Chem. Biol. 2, 62-66), a LZ peptide corresponding to the LZ present in NZGFP (FIG. 4) was synthesized. The reappearance of fluorescence of the disassembled NZGFP/CZGFP complex in an in vitro assay as a function of added peptide was monitored (FIG. 6). The EK peptide (SEQ ID NO: 1) prevented the assembly of the complex (4 μM) with an IC₅₀ value of 31 μM. […]

T1 sequence (chain, as listed by the source): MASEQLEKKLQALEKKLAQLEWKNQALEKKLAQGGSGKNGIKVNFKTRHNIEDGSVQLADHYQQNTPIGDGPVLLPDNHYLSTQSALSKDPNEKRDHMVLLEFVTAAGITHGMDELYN

B1: EK peptide (peptide)
peptide: ALKKELQANKKELAQLKWELQALKKELAQ
notes: Chemically synthesized and HPLC purified; also called LZ peptide
IC50: 31 µM
